Measurements published in patent US20250262316A1 (BIO THERA SOLUTIONS, published 2025).

Tests used:
[1] = molecular target: T1, Tim3 (NCBI Reference Sequence: NP_116171.3) on Tim3-CHO cells (UniProt Q8TDQ0 22-301, limits assumed); test: flow cytometry on Tim3-CHO cells; blank P3 0.2%; the filing says V1-V5 did not bind
T1 construct: whole, on cells

[2] = molecular target: T2, VISTA (NCBI Reference Sequence: NP_071436.1) on VISTA-CHO cells (UniProt Q9H7M9 33-311, limits assumed); test: flow cytometry on VISTA-CHO cells; blank P3 0.1%; the filing says V1-V5 did not bind
T2 construct: whole, on cells

[3] = molecular target: T2, VISTA (NCBI Reference Sequence: …); test: flow cytometry on VISTA-CHO cells
antigen hB7-H3-His [4] = molecular target: T3, antigen hB7-H3-His (human, UniProt Q5ZPR3 29-461); test: ELISA, antigen coated at 2 µg/mL, anti-human kappa light chain HRP detection
T3 construct: residues 1-28 are left out on that ground
T3 sequence: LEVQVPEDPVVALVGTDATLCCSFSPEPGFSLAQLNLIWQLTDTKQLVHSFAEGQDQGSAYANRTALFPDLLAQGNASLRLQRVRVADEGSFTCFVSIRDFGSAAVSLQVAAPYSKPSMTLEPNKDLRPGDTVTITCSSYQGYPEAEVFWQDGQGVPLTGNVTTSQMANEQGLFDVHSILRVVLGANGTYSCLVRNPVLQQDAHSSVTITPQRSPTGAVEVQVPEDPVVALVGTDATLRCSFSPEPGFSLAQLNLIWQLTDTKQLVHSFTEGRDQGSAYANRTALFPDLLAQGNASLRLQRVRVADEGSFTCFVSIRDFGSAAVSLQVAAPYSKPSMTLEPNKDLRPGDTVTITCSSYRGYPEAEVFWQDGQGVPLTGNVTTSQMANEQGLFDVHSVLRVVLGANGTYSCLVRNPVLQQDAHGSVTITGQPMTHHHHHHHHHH

[5] = molecular target: T4, cynomolgus monkey B7-H3 (novoprotein CA61) (cynomolgus monkey); test: as above
T4 construct: Bought protein

[6] = molecular target: T5, mouse B7-H3 (SinoBiological, 50973-M08H) (mouse, UniProt Q8VE98 29-244); test: ELISA, antigen coated at 2 µg/mL, Antibody V3 in 2-fold dilutions (EC50 cell in Table 12: NA)
T5 construct: Bought protein
T5 sequence (looked up): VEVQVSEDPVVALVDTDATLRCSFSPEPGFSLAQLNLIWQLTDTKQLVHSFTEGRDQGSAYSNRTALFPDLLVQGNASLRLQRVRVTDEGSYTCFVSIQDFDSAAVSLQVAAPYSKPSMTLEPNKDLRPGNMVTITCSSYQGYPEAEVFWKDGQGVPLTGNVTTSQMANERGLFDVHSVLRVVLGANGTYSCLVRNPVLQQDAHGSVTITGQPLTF

hB7-H3-Fc = molecular target: T6, hB7-H3-Fc; test: ELISA on coated hB7-H3-Fc (2 ug/mL), HRP anti-human kappa secondary, A450, antibody from 300 nM in 3-fold dilutions; axis 'Concentration' has no unit, nM from p-1066
T6 construct: also called antigen hB7-H3-Fc

antigen hB7-H3-His [7] = molecular target: T3, antigen hB7-H3-His; test: SPR, BiaCore T200, ADC or antibody captured on Protein A chip, hB7-H3-His as analyte, 1:1 model; naked Antibody V3, not conjugated
[8] = molecular target: T7, B7-H3 on MDA-MB-468 cells (human, UniProt Q5ZPR3); test: flow cytometry on MDA-MB-468 cells; blank V2-R 0.9%
T7 construct: endogenous, on the cell surface
T7 sequence (cell surface antigen, looked up): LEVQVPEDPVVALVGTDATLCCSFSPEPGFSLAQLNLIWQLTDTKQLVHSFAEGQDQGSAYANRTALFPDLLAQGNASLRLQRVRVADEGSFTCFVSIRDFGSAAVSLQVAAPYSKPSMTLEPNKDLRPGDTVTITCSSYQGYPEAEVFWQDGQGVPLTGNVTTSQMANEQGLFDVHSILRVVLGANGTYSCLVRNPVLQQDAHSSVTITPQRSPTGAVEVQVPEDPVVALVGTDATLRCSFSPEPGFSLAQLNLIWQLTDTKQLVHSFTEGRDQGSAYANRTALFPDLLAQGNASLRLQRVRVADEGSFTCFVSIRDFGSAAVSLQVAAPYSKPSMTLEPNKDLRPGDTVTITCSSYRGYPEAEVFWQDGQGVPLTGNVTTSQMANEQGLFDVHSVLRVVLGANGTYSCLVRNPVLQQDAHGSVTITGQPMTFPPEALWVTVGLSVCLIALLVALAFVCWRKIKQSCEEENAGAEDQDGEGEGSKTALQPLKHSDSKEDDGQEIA

antigen hB7-H3-His [9] = molecular target: T3, antigen hB7-H3-His; test: SPR, BiaCore T200, ADC or antibody captured on Protein A chip, hB7-H3-His as analyte, 1:1 model
[10] = molecular target: T8, Lag3 (NCBI Reference Sequence: NP_002277.4) on Lag3-CHO cells (UniProt P18627 23-525, limits assumed); test: flow cytometry on Lag3-CHO cells; blank P3 0.5%; the filing says V1-V5 did not bind
T8 construct: whole, on cells
T8 sequence (looked up): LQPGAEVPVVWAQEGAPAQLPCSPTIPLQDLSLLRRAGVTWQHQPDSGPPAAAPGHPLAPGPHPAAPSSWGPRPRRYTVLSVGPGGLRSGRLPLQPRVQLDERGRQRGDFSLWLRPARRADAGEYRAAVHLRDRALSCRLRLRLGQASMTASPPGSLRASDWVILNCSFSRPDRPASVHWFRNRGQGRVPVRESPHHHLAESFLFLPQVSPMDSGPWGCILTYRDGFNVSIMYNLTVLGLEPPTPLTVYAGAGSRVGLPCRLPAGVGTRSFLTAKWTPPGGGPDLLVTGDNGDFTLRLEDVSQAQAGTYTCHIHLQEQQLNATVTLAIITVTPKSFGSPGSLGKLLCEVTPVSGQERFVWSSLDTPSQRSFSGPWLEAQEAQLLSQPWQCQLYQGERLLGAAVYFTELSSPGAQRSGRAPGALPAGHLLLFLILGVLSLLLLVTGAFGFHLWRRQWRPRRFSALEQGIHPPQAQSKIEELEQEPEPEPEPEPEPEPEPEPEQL

[11] = molecular target: T1, Tim3 (NCBI Reference Sequence: …); test: flow cytometry on Tim3-CHO cells
[12] = molecular target: T8, Lag3 (NCBI Reference Sequence: …); test: flow cytometry on Lag3-CHO cells

T6 sequence (fusion chain, as listed by the source limits assumed): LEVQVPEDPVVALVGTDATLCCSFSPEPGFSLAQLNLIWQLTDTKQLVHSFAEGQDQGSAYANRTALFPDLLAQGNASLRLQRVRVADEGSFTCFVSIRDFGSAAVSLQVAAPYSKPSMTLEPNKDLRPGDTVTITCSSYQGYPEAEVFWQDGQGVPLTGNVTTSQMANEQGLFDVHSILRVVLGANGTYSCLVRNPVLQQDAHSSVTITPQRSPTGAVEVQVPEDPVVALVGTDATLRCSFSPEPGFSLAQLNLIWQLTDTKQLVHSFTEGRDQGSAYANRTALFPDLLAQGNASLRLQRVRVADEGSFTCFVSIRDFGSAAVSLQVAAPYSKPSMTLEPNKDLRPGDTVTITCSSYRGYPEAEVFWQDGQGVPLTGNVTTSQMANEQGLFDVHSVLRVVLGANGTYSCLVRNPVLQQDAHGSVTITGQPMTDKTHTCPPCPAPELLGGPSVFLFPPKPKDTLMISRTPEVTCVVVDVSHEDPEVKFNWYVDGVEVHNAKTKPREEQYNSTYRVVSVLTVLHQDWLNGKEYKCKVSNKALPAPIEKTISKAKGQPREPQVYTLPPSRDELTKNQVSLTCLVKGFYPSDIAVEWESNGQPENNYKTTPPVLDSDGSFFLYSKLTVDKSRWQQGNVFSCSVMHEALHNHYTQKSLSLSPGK

- % of cells in gate P3 at 100 nM [1]: 0.4%
- % of cells in gate P3 at 100 nM [2]: 0.7%
- binding result [3]: no binding (tested: 100 nM)
- EC50 (antigen hB7-H3-His [4]): 0.042 µg/mL
- EC50 [5]: 0.042 µg/mL
- EC50 (hB7-H3-Fc): 1.77 nM
- Kd (antigen hB7-H3-His [7]): 0.175 nM
- % of cells in gate V1-R at 0.411 nM [8]: 36.8%
- % of cells in gate V1-R at 1.23 nM [8]: 86.4%
- % of cells in gate V1-R at 3.7 nM [8]: 94%
- % of cells in gate V1-R at 11.11 nM [8]: 97.2%
- % of cells in gate V1-R at 33.33 nM [8]: 98.9%
- % of cells in gate V1-R at 100 nM [8]: 99.6%
- koff (antigen hB7-H3-His [9]): 0.000155 s⁻¹
- kon (antigen hB7-H3-His [9]): 886000 M⁻¹ s⁻¹
- % of cells in gate P3 at 100 nM [10]: 0.6%
- binding result [11]: no binding (tested: 100 nM)
- binding result [12]: no binding (tested: 100 nM)
B1: Antibody V3 (antibody, human IgG1, kappa, V domains shown)
VH: EVQLVQSGAEVKKSGESLKISCKASGYTFTDYDINWVRQMPGKGLEWIGWIFPGDDTTKYNEKFKGQVTLSADKSTNTAYMQWSSLKASDTAMYYCARSPSFDYWGQGTLVTVSS
VL: QIVLTQSPGTLSLSPGERATLSCSASSTIGFMYWYQQKPGQAPRRWIYDTSKLASGVPDRFSGSGSGTDYTLTISRLEPEDFAVYYCHQRSSYPTFGQGTKVEIKR
notes: Humanized from chimeric antibody M1; also called humanized antibody V3
- binding result [6]: no binding (tested: initial concentration of 2 µg/mL)
